Assay results from patent US20230272099A1 (Chugai, published 2023).

T1: human FcgRIIa type R extracellular domain (human, UniProt P12318 34-217)
T1 construct: extracellular domain; also called hFcgRIIaR
T1 sequence (looked up): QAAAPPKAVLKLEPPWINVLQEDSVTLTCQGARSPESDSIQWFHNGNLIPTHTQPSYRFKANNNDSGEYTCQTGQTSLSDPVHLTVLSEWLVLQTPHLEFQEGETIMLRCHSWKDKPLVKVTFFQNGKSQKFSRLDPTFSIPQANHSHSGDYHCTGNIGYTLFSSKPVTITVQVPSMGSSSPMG

T2: human FcgRIIa type H extracellular domain (human, UniProt P12318 34-217)
T2 construct: extracellular domain; also called hFcgRIIaH
T2 sequence (looked up): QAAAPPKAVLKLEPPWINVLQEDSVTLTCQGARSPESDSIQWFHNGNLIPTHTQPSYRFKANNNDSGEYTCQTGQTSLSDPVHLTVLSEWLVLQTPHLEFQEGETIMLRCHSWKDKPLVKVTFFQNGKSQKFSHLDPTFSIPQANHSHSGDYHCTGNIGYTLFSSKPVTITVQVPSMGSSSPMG

T3: human FcgRIIb extracellular domain (human, UniProt P31994 43-217)
T3 construct: extracellular domain; also called hFcgRIIb
T3 sequence (looked up): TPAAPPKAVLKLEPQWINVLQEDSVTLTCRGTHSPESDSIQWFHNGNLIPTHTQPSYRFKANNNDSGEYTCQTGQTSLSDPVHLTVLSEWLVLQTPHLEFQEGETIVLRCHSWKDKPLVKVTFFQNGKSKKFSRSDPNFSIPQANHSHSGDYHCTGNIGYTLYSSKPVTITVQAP


Key:
human FcRn = human FcRn (human, UniProt P55899 24-290; P61769 21-119); experiment: SPR 25C pH 6.0, steady state
How it was run: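 Antibody (~400 RU) captured on anti-Fab-lambda sensor chip, human FcRn injected as analyte.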

[1] = target: T1, human FcgRIIa type R extracellular …; experiment: SPR 25C
[2] = target: T4, human FcgRIIIa F158 extracellular domain (human, UniProt P08637 17-208); experiment: SPR 25C
T4 construct: extracellular domain; also called hFcgRIIIaF
T4 sequence (P08637 17-208): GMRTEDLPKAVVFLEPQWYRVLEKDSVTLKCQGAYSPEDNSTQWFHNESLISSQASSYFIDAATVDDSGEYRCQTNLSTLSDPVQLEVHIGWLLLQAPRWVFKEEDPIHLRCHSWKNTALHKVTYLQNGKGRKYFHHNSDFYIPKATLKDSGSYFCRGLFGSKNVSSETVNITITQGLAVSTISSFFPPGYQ

[3] = target: T5, human FcgRIa extracellular domain (human, UniProt P12314 16-292); experiment: SPR 25C
T5 construct: extracellular domain; also called hFcgRIa
T5 sequence (P12314 16-292): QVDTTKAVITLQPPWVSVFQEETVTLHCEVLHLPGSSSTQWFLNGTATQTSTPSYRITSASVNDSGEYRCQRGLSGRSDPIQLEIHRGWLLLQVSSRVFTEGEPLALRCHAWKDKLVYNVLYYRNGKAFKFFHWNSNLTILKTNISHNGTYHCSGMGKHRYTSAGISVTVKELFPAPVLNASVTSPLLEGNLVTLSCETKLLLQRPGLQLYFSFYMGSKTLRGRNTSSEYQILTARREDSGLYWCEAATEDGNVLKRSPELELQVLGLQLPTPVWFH

[4] = target: T2, human FcgRIIa type H extracellular …; experiment: SPR 25C
[5] = target: T3, human FcgRIIb extracellular domain; experiment: SPR 25C
[6] = target: T6, human FcgRIIIa V158 extracellular domain (human, UniProt P08637 17-208); experiment: SPR 25C
T6 construct: extracellular domain; also called hFcgRIIIaV
T6 sequence (P08637 17-208 F176V): as the sequence (P08637 17-208) above, with F160V counted along it

| Kd (human FcRn) [nM] | binding per 1RU antibody [1] [RU] | relative binding (A375-G1T3/B167-Lamlib=1) [1] | binding per 1RU antibody [2] [RU] | relative binding (A375-G1T3/B167-Lamlib=1) [2] | binding per 1RU antibody [3] [RU] | relative binding (A375-G1T3/B167-Lamlib=1) [3] | binding per 1RU antibody [4] [RU] | relative binding (A375-G1T3/B167-Lamlib=1) [4] | binding per 1RU antibody [5] [RU] | relative binding (A375-G1T3/B167-Lamlib=1) [5] | binding per 1RU antibody [6] [RU] | relative binding (A375-G1T3/B167-Lamlib=1) [6] | Binder |
| --- | --- | --- | --- | --- | --- | --- | --- | --- | --- | --- | --- | --- | --- |
| 1110 | 0.0554 | 1.2 | 0.0012 | 0.06 | 0.0018 | 0.02 | 0.0542 | 0.96 | 0.054 | 4.93 | 0.0013 | 0.02 | A375-SCF039a/B167-Lamlib (antibody, human IgG1, lambda) heavy: EVQLVESGGGLVKPGGSLRLSCAASGFTFSTFTMNWVRQAPGKGLEWVSSISSKSTYIEYADSFKVRFTISRDNAKNSLYLQMNSLRAEDTAVYYCARYGAKNFLNWVFDYWGQGTLVTVSSASTKGPSVFPLAPSSKSTSGGTAALGCLVKDYFPEPVTVSWNSGALTSGVHTFPAVLQSSGLYSLSSVVTVPSSSLGTQTYICNVNHKPSNTKVDKRVEPKSCDKTHTCPPCPAPELWNGPSVFLFPPKPKDTLMISRTPEVTCVVVDVSDEDPEVKFNWYVDGVEVHNAKTKPREELYNSTYRVVSVLTVLHQDWLNGKEYKCKVSNTALPKPIEKTISKAKGQRREPQVYTLPPSREEMTKNQVSLTCLVKGFYPSDIAVEWESNGQPENNYKTTPPVLDSDGSFFLYSKLTVDKSRWQQGNVFSCSVMHEALHNHYTQKSLSLSP light: QSALTQPPSASGSPGQTVTISCTGTRYDVGYYEYVSWYQQHPGKAPKLMIYETSKRLSGVPDRFSGSKSGNTASLTVSGLQAEDEADYYCSSYRYEHQVSFGGGTKLTVLGQPKAAPSVTLFPPSSEELQANKATLVCLISDFYPGAVTVAWKADSSPVKAGVETTTPSKQSNNKYAASSYLSLTPEQWKSHRSYSCQVTHEGSTVEKTVAPTECS |
| 1100 | 0.0376 | 0.81 | 0.0009 | 0.04 | 0.0446 | 0.55 | 0.0571 | 1.01 | 0.0433 | 3.95 | 0.0022 | 0.03 | A375-SCF041a/B167-Lamlib (antibody, human IgG1, lambda) heavy: EVQLVESGGGLVKPGGSLRLSCAASGFTFSTFTMNWVRQAPGKGLEWVSSISSKSTYIEYADSFKVRFTISRDNAKNSLYLQMNSLRAEDTAVYYCARYGAKNFLNWVFDYWGQGTLVTVSSASTKGPSVFPLAPSSKSTSGGTAALGCLVKDYFPEPVTVSWNSGALTSGVHTFPAVLQSSGLYSLSSVVTVPSSSLGTQTYICNVNHKPSNTKVDKRVEPKSCDKTHTCPPCPAPELLNGPSVFLFPPKPKDTLMISRTPEVTCVVVDVSDEDPEVKFNWYVDGVEVHNAKTKPREEQYNSTYRVVSVLTVLHQDWLNGKEYKCKVSNKALPKPIEKTISKAKGQRREPQVYTLPPSREEMTKNQVSLTCLVKGFYPSDIAVEWESNGQPENNYKTTPPVLDSDGSFFLYSKLTVDKSRWQQGNVFSCSVMHEALHNHYTQKSLSLSP light: QSALTQPPSASGSPGQTVTISCTGTRYDVGYYEYVSWYQQHPGKAPKLMIYETSKRLSGVPDRFSGSKSGNTASLTVSGLQAEDEADYYCSSYRYEHQVSFGGGTKLTVLGQPKAAPSVTLFPPSSEELQANKATLVCLISDFYPGAVTVAWKADSSPVKAGVETTTPSKQSNNKYAASSYLSLTPEQWKSHRSYSCQVTHEGSTVEKTVAPTECS |
| 1460 | 0.0446 | 0.96 | 0.001 | 0.05 | 0.0016 | 0.02 | 0.0454 | 0.8 | 0.0465 | 4.24 | 0.0013 | 0.02 | A375-SCF040/B167-Lamlib (antibody, human IgG1, lambda, copies: 2 + 2) heavy: EVQLVESGGGLVKPGGSLRLSCAASGFTFSTFTMNWVRQAPGKGLEWVSSISSKSTYIEYADSFKVRFTISRDNAKNSLYLQMNSLRAEDTAVYYCARYGAKNFLNWVFDYWGQGTLVTVSSASTKGPSVFPLAPSSKSTSGGTAALGCLVKDYFPEPVTVSWNSGALTSGVHTFPAVLQSSGLYSLSSVVTVPSSSLGTQTYICNVNHKPSNTKVDKKVEPKSCDKTHTCPPCPAPELWNGPSVFLFPPKPKDTLMISRTPEVTCVVVDVSDEDPEVKFNWYVDGVEVHNAKTKPREELYNSTYRVVSVLTVLHQDWLNGKEYKCKVSNTALPKPIEKTISKAKGQPREPQVYTLPPSREEMTKNQVSLTCLVKGFYPSDIAVEWESNGQPENNYKTTPPVLDSDGSFFLYSKLTVKKSRWQQGNVFSCSVMHEALHNHYTQKSLSLSP light: QSALTQPPSASGSPGQTVTISCTGTRYDVGYYEYVSWYQQHPGKAPKLMIYETSKRLSGVPDRFSGSKSGNTASLTVSGLQAEDEADYYCSSYRYEHQVSFGGGTKLTVLGQPKAAPSVTLFPPSSEELQANKATLVCLISDFYPGAVTVAWKADSSPVKAGVETTTPSKQSNNKYAASSYLSLTPEQWKSHRSYSCQVTHEGSTVEKTVAPTECS |
| 1490 | 0.0327 | 0.71 | 0.0003 | 0.01 | 0.0396 | 0.49 | 0.0522 | 0.92 | 0.0393 | 3.59 | 0.0014 | 0.02 | A375-SCF042a/B167-Lamlib (antibody, human IgG1, lambda, copies: 2 + 2) heavy: EVQLVESGGGLVKPGGSLRLSCAASGFTFSTFTMNWVRQAPGKGLEWVSSISSKSTYIEYADSFKVRFTISRDNAKNSLYLQMNSLRAEDTAVYYCARYGAKNFLNWVFDYWGQGTLVTVSSASTKGPSVFPLAPSSKSTSGGTAALGCLVKDYFPEPVTVSWNSGALTSGVHTFPAVLQSSGLYSLSSVVTVPSSSLGTQTYICNVNHKPSNTKVDKRVEPKSCDKTHTCPPCPAPELLNGPSVFLFPPKPKDTLMISRTPEVTCVVVDVSDEDPEVKFNWYVDGVEVHNAKTKPREEQYNSTYRVVSVLTVLHQDWLNGKEYKCKVSNKALPKPIEKTISKAKGQPREPQVYTLPPSREEMTKNQVSLTCLVKGFYPSDIAVEWESNGQPENNYKTTPPVLDSDGSFFLYSKLTVKKSRWQQGNVFSCSVMHEALHNHYTQKSLSLSP light: QSALTQPPSASGSPGQTVTISCTGTRYDVGYYEYVSWYQQHPGKAPKLMIYETSKRLSGVPDRFSGSKSGNTASLTVSGLQAEDEADYYCSSYRYEHQVSFGGGTKLTVLGQPKAAPSVTLFPPSSEELQANKATLVCLISDFYPGAVTVAWKADSSPVKAGVETTTPSKQSNNKYAASSYLSLTPEQWKSHRSYSCQVTHEGSTVEKTVAPTECS |
| 1130 | 0.0371 | 0.8 | 0.0007 | 0.03 | 0.0013 | 0.02 | 0.0371 | 0.65 | 0.035 | 3.2 | 0.0005 | 0.01 | A375-SCF041aPh/B167-Lamlib (antibody, human IgG1, lambda) heavy: EVQLVESGGGLVKPGGSLRLSCAASGFTFSTFTMNWVRQAPGKGLEWVSSISSKSTYIEYADSFKVRFTISRDNAKNSLYLQMNSLRAEDTAVYYCARYGAKNFLNWVFDYWGQGTLVTVSSASTKGPSVFPLAPSSKSTSGGTAALGCLVKDYFPEPVTVSWNSGALTSGVHTFPAVLQSSGLYSLSSVVTVPSSSLGTQTYICNVNHKPSNTKVDKRVEPKSCDKTHTCPPCPAPELWNGPSVFLFPPKPKDTLMISRTPEVTCVVVDVSDEDPEVKFNWYVDGVEVHNAKTKPREEQYNSTYRVVSVLTVLHQDWLNGKEYKCKVSNKALPKPIEKTISKAKGQRREPQVYTLPPSREEMTKNQVSLTCLVKGFYPSDIAVEWESNGQPENNYKTTPPVLDSDGSFFLYSKLTVDKSRWQQGNVFSCSVMHEALHNHYTQKSLSLSP light: QSALTQPPSASGSPGQTVTISCTGTRYDVGYYEYVSWYQQHPGKAPKLMIYETSKRLSGVPDRFSGSKSGNTASLTVSGLQAEDEADYYCSSYRYEHQVSFGGGTKLTVLGQPKAAPSVTLFPPSSEELQANKATLVCLISDFYPGAVTVAWKADSSPVKAGVETTTPSKQSNNKYAASSYLSLTPEQWKSHRSYSCQVTHEGSTVEKTVAPTECS |
